We go through one substance from PMC6435710.

Assay [1] deals with salmon Calcitonin (salmon). The assay can be described thus: SEC; Sephadex G50 column at 4 °C, 5 mM phosphate buffer pH 7.4; spontaneously aggregated native sCT (2 mg incubated overnight at room temperature); calibrated with BSA, cytochrome c, aprotinin, somatostatin; absorbance at 280 nm.
Assay [2] concerns the target salmon Calcitonin (salmon). The assay can be described thus: cross-linking; PICUP (Ru(bpy)3, ammonium persulfate, 2 s light) then tricine SDS-PAGE, silver stain and densitometry; PFOs-enriched SEC fractions (29th and 30th), 80 uM.
Assay [3] concerns the target salmon Calcitonin (salmon). Nature of the assay: cross-linking; PICUP (Ru(bpy)3, ammonium persulfate, 2 s light) then tricine SDS-PAGE, silver stain and densitometry; native unfractioned Monomer-enriched sample (powder dissolved in desalted water, 80 uM).

Take salmon Calcitonin (peptide): in assay [1], the stoichiometry N was determined as 2. Further, the PFOs% (trimers + tetramers + pentamers + hexamers percentage of the gel lane) in assay [2] is 54%; in assay [3], 16.5%.
